Measured values reported in the supplement of paper PMC9170038.

Test system: MS2 coat protein
Experiment: apparent KD of MS2 coat protein; designed switch direction (-1 OFF switch, 1 ON switch): -1; higher = weaker reporter binding
Summary of the method: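 Transcription of designed RNA switches on Illumina chips was done by stalled E. coli RNA polymerase. SNAP-549-labelled MS2 coat protein was then titrated in doubling steps from 0.7 or 1.5 nM to 3 µM, with steps of 0.8–1.5 h at the lowest and 10–20 min at the highest concentration. The per-design median over clusters of curve-fitted normalised fluorescence is reported as apparent KD.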

[1] = input ligand: microRNA oligo, concentration not stated
[2] = Eterna round: R95, input ligand: FMN 200 uM
[3] = Eterna round: R95, input ligand: microRNA oligo, concentration not stated
[4] = Eterna round: R95, input ligand: none

With “UUUUAGGCAGGAUAUACAUGAGGAUCACCCAUGUAAAUUUUUCGUUUAACUUGAAUGUGUAGAAGGGCCAUUUU [Ex3 #59] (Eterna round: R97, puzzle: Exclusion 3)” the “apparent KD of MS2 coat protein” value (input ligand: FMN 200 uM) was 0.0207 µM and the “apparent KD of MS2 coat protein” value (input ligand: none) was 0.0202 µM.
“CUUGUUUAUGUAGGAUAUGCCUGGCGUGCCUUUGCAGAAGGACAUGAGGAUCACCCAUGUAGUAUGAGGCUUACCCUUGUCGCC [salish99_ExNG1_r04_120] (Eterna round: R96, puzzle: Exclusion NG 1)” was tested, and the “apparent KD of MS2 coat protein” value [1] was 0.0199 µM.
With “CUAGCGAAUGUAGGAUAUCGGACUGUUUCAGUCUGAGAAGGACAUGAGGAUCACCCAUGUAUAGCUACGUGAGUAGCUCGCUAG [JL ENG1 3.91] (Eterna round: R96, puzzle: Exclusion NG 1)” the “apparent KD of MS2 coat protein” value (input ligand: FMN 200 uM) was 0.0436 µM, the “apparent KD of MS2 coat protein” value [1] was 0.013 µM and the “apparent KD of MS2 coat protein” value (input ligand: none) was 0.0171 µM.
For “GGCACACAUGAGGAUCACCCAUGUCAGGAUAUGUGGCGAUCGUCGAAAGACGAUAGCCACAGAAGGGACAGGCC [Eli x1 4.25] (Eterna round: R97, puzzle: Exclusion 1)”, the “apparent KD of MS2 coat protein” value (input ligand: FMN 200 uM) was 0.0687 µM and the “apparent KD of MS2 coat protein” value (input ligand: none) was 0.0498 µM.
In the case of “AUCGUGGCUCAGGAUAUCAGCCCUGUGGAGUUCUGAGAAGGGAGCACAUGAGGAUCACCCAUGUGAAAGGGUAC [Esdienar] (puzzle: Exclusion 6)”, the “apparent KD of MS2 coat protein” value [2] is reported as 0.148 µM, the “apparent KD of MS2 coat protein” value [3] is reported as 0.0456 µM and the “apparent KD of MS2 coat protein” value [4] is reported as 0.0408 µM.
For “UUUUGAAAGUGAGGAUAUGACAUGAGGAUCACCCAUGUAAAGGGAGUUGACUAUAUAGCAAGAUAUCAGAAGGCACAAAUGUUU [JR_ExcNG2_Sub003] (Eterna round: R96, puzzle: Exclusion NG 2)”, the “apparent KD of MS2 coat protein” value (input ligand: FMN 200 uM) was 0.367 µM, the “apparent KD of MS2 coat protein” value [1] was 0.341 µM and the “apparent KD of MS2 coat protein” value (input ligand: none) was 0.645 µM.
In the case of “CUGAACCCGGUAGGAUAUAUUGUGGGCAAACAUGGAACAACAUGAGGAUCACCCAUGUAAUUUAGGUAGAAGGGCCAAAAGAUU [Excl-NG2-LRO07] (Eterna round: R96, puzzle: Exclusion NG 2)”, the “apparent KD of MS2 coat protein” value (input ligand: FMN 200 uM) is reported as 0.0779 µM, the “apparent KD of MS2 coat protein” value [1] is reported as 0.0504 µM and the “apparent KD of MS2 coat protein” value (input ligand: none) is reported as 0.0742 µM.
In the case of “GAUCAACAUGAGGAUCACCCAUGUGAGGAUAUGUAUCAUAGAUCUUCGGAUCUAUGAUACAGAAGGCAUGUAGG [Ex1-3: 100] (puzzle: Exclusion 1)”, the “apparent KD of MS2 coat protein” value [3] is reported as 0.0742 µM.
For “UGAUCUAGCGGAGGAUAUACAUGAGGAUCACCCAUGUAGUUGUCUGUACCGUAGUGCAGACUUGUGUAGAAGGCCGCUAGAUCU [JL ENG2 3.62] (Eterna round: R96, puzzle: Exclusion NG 2)”, the “apparent KD of MS2 coat protein” value (input ligand: FMN 200 uM) was 0.0259 µM, the “apparent KD of MS2 coat protein” value [1] was 0.00962 µM and the “apparent KD of MS2 coat protein” value (input ligand: none) was 0.0143 µM.
“AUUUAGAGAGGAUAUAUAAAGUGAAACAUGAGGAUCACCCAUGUAAUUUUAUGGAUGUAAAUAGAAGGCUCAUUUA [Mat - Exclusion 5 - JL mod - D1] (puzzle: Exclusion 5)” was tested, and the “apparent KD of MS2 coat protein” value [2] was 0.0237 µM, the “apparent KD of MS2 coat protein” value [3] was 0.0289 µM and the “apparent KD of MS2 coat protein” value [4] was 0.0301 µM.
For “CCACUGCAUUGCAGUGUCGACAUGAGGAUCACCCAUGUGUCGCAGGCGCCGAGCUUUCCGCUCGUUACGUAUCGACG [Arorin] (Eterna round: R96, puzzle: Sensor v2, turn-off variant)”, the “apparent KD of MS2 coat protein” value (input ligand: FMN 200 uM) was 0.0603 µM, the “apparent KD of MS2 coat protein” value [1] was 0.0421 µM and the “apparent KD of MS2 coat protein” value (input ligand: none) was 0.0607 µM.
For “CUCUUGUGAGGAUAUCAGGUGUGCUAGCGUACUGGUACAUCUGAGAAGGCACAUGAGGAUCACCCAUGUUUCUU [JL-ex4-3.21 Brourd mod] (puzzle: Exclusion 4)”, the “apparent KD of MS2 coat protein” value [3] was 0.0781 µM.
“AAGUAACAUGAGGAUCACCCAUGUUAGGAUAUCUCGGCCGCGGCAUCGCCGCGAAACCAGAGAAGGAGCGGGUG [Erargeisar] (Eterna round: R97, puzzle: Exclusion 1)” was tested, and the “apparent KD of MS2 coat protein” value (input ligand: FMN 200 uM) was 0.206 µM and the “apparent KD of MS2 coat protein” value (input ligand: none) was 0.16 µM.
With “UUGUUAUAUGUAGGAUAUGCGUAUUAUUAUUAUGCAGAAGGACAUGAGGAUCACCCAUGUGUAUUAUUAUUAUAUAUUAUAUAU [Title] (Eterna round: R96, puzzle: Exclusion NG 1)” the “apparent KD of MS2 coat protein” value (input ligand: FMN 200 uM) was 0.0413 µM, the “apparent KD of MS2 coat protein” value [1] was 0.0155 µM and the “apparent KD of MS2 coat protein” value (input ligand: none) was 0.0211 µM.
In the case of “CGUGCGUAUGUGAGGAUAUGCUGGUCCUUGGAUCGGCAGAAGGCACAUGAGGAUCACCCAUGUGGUGUCGUCCA [salish99_Bmod_ex4_089] (puzzle: Brourd's mod of Exclusion 4)”, the “apparent KD of MS2 coat protein” value [3] is reported as 0.0857 µM.
For “UUUAGUUCAGGAUAUGUAGAUUUUAACAUGAGGAUCACCCAUGUAGAUCCUGAAUUAACUACAGAAGGGAACAUUA [Exclusion 5: 2:d] (puzzle: Exclusion 5)”, the “apparent KD of MS2 coat protein” value [3] was 0.0194 µM.
In the case of “UUAAAUCAUGUAGGAUAUGCGUGGCGAAGCUAUGCAGAAGGACAUGAGGAUCACCCAUGUGCUGCGGUCUGCGUACAGAUCGCA [JL ENG1 1.06] (Eterna round: R96, puzzle: Exclusion NG 1)”, the “apparent KD of MS2 coat protein” value (input ligand: FMN 200 uM) is reported as 0.0876 µM, the “apparent KD of MS2 coat protein” value [1] is reported as 0.259 µM and the “apparent KD of MS2 coat protein” value (input ligand: none) is reported as 0.307 µM.
With “GAUCCUUCUGUUAGGAUAUGCUUUGGGCUUCCGCAGCAGAAGGAACAUGAGGAUCACCCAUGUCCAAUGCCAUC [salish99_bmex4_r4_505] (Eterna round: R97, puzzle: Brourd's mod of Exclusion 4)” the “apparent KD of MS2 coat protein” value (input ligand: FMN 200 uM) was 0.0461 µM and the “apparent KD of MS2 coat protein” value (input ligand: none) was 0.0391 µM.
For “ACAAGCUUAGGUUUUCAUAACAUGAGGAUCACCCAUGUUCGUCUUAUAAAAAUAAAAAUAAAAAACAAAAAAUAAAA [Sensor V2: 66] (Eterna round: R96, puzzle: Sensor v2, turn-off variant)”, the “apparent KD of MS2 coat protein” value (input ligand: FMN 200 uM) was 0.0391 µM, the “apparent KD of MS2 coat protein” value [1] was 0.117 µM and the “apparent KD of MS2 coat protein” value (input ligand: none) was 0.0412 µM.
For “GUGAUCUAUCAUGUAAUCAACAUGAGGAUCACCCAUGUAGACAAGUUUUUUGCUCGUCUGAUAAUAAGAUAGAUCAC [Antenna 16 - Jieux - Sensor, turn-off variant 1] (Eterna round: R97, puzzle: Sensor, turn-off variant 1)”, the “apparent KD of MS2 coat protein” value (input ligand: FMN 200 uM) was 0.0138 µM and the “apparent KD of MS2 coat protein” value (input ligand: none) was 0.0123 µM.
With “UGUUCGUCAGGAUAUUCUACUUAUUACAUGAGGAUCACCCAUGUGUAUGUACAAGGGUGUGAAGAAGGGACUUGUC [LRO-Excl5-07-mod A17d by Omei] (Eterna round: R97, puzzle: Exclusion 5)” the “apparent KD of MS2 coat protein” value (input ligand: FMN 200 uM) was 0.331 µM and the “apparent KD of MS2 coat protein” value (input ligand: none) was 1.24 µM.
In the case of “UAAAGCUUUGAGAUCCUUAACAUGAGGAUCACCCAUGUUCGUCUUAUGAUGGUCUGAUCCCUGAGGAUCGGACCGUU [Mat - Sensor v3 - turn-off var 1 - JL Mod - D5] (puzzle: Sensor v3, turn-off variant 1)”, the “apparent KD of MS2 coat protein” value [2] is reported as 0.269 µM, the “apparent KD of MS2 coat protein” value [3] is reported as 0.0266 µM and the “apparent KD of MS2 coat protein” value [4] is reported as 0.252 µM.
With “CUUAUGUAAGGAUAUGCCUGGCCGUGAGGCCAAAUUGAAUAGCAGAAGGUACAUGAGGAUCACCCAUGUACGGG [jl-ex4-4.63 ViennaUCT mod] (Eterna round: R97, puzzle: Exclusion 4)” the “apparent KD of MS2 coat protein” value (input ligand: FMN 200 uM) was 0.325 µM and the “apparent KD of MS2 coat protein” value (input ligand: none) was 0.364 µM.
For “ACAAACAGCUGAGGAUAUCACGAGCAAGGCCAGUGAGAAGGUAGCUCAAACAUGAGGAUCACCCAUGUUAAACUUCCUCAUGCG [Raisorar] (Eterna round: R96, puzzle: Exclusion NG 1)”, the “apparent KD of MS2 coat protein” value (input ligand: FMN 200 uM) was 0.0137 µM, the “apparent KD of MS2 coat protein” value [1] was 0.0104 µM and the “apparent KD of MS2 coat protein” value (input ligand: none) was 0.0177 µM.
In the case of “UAUCAUGUAGGAUAUACGUAGCUAUGACCCUCGAGAACUAUACAUGAGGAUCACCCAUGUAGAAGGGCGACUUU [Eternabot (L1) Solution 34] (Eterna round: R97, puzzle: Exclusion 2)”, the “apparent KD of MS2 coat protein” value (input ligand: FMN 200 uM) is reported as 0.0213 µM and the “apparent KD of MS2 coat protein” value (input ligand: none) is reported as 0.0172 µM.
